Data taken from patent US20130129739A1.

Target: human prolactin receptor (PRLR) on cells (human) (UniProt P16471)
Experiment: cell-based or functional assay

human prolactin receptor (PRLR) on cells (human), sequence (P16471 25-622): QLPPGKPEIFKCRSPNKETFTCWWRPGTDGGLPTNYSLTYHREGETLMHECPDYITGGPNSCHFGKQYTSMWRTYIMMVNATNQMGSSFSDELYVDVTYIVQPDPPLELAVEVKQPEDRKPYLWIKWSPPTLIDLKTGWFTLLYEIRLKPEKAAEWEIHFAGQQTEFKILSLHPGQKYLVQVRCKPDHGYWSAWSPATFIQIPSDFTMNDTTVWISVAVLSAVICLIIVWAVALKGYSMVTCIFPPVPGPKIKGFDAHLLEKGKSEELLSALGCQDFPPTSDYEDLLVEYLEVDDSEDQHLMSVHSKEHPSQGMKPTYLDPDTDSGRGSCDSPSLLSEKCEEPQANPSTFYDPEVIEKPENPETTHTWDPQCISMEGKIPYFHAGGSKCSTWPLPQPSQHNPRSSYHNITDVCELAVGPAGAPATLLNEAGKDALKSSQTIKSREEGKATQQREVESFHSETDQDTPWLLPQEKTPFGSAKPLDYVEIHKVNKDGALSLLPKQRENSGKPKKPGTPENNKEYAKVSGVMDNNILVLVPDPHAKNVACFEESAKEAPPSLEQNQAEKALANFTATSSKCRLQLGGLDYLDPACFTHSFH

Substance: Negative control (Table 8)
- Inhibition of phosphorylation of ERK1/2 in % at 7.5 µg/ml (ELISA, prolactin-treated T47D lysates): 9%
- Inhibition of phosphorylation of PRLR in % at 7.5 µg/ml (ELISA, prolactin-treated T47D lysates): 2%
- Inhibition of phosphorylation of STAT5 in % at 7.5 µg/ml (ELISA, prolactin-treated T47D lysates): 0%
